Assay results taken from patent CN113045662A (SEEBIO BIOTECHNOLOGY SHANGHAI CO LTD, dated 2021).

Target: T1, PD-L1-Ig-V (UniProt Q9NZQ7 19-134)
T1 construct: domain: Ig-V; also called PD-L1胞外域蛋白; not shown: His-Tag from the pET-28a vector
Test: non-competitive checkerboard ELISA, mean of 6 K values

T1 sequence (Q9NZQ7 19-134): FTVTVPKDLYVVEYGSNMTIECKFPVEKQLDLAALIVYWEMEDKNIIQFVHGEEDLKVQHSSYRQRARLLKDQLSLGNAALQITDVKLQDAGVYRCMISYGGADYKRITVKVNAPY

B1: PD-L1-Ig-V-VHH 6-21 (VHH)
VHH: DVQLQASGGGLVQAGGSLRLSCAASRMIFSTFSIQDMGWYRQAPGKQRDLVALITSDGSTNYADSVKGRFTISRDNAKSTVYLQMNNLKPEDTAVYYCAATDNVSGGRLLLNIWWMRDMWYNYWGQGTLVTVSS
notes: Nanobody from a synthetic phage display library (pCANTAB5E, M13K07 helper phage); also called 6-21号克隆
Ka: ~1.93e+08 M⁻¹
